Results published in article PMC12299903 (Pharmaceuticals, 2025).

Tests used:
[1] = Differential scanning calorimetry of model membranes; conditions: 3 mM DMPC:DMPG (3:1) LUVs, 10 mM Tris-HCl pH 7.5, pure LUVs 23.1, triplicate, ± 0.2 °C
Method: The phase transition profile of 1,2-dimyristoyl-sn-glycero-3-phosphocholine and 1,2-dimyristoyl-sn-glycero-3-phosphocholine/1,2-dimyristoyl-sn-glycero-3-phosphoglycerol (DMPC:DMPG. 3:1, mol:mol) at 3 mM was investigated in the absence and presence of Lun-1, NP, NP-Lun-EN, and NP-Lun-EC at different concentrations (Table S1, using a VP-DSC® microcalorimeter (Malvern® Instruments, Malvern, UK). All mixtures of LUVs and peptide–LUVs were prepared immediately prior to the experiments. The samples were pre-degassed and tested against a 10 mM Tris-HCl buffer (pH 7.5) containing 50 mM NaCl in the reference cell. Buffer-only experiments were also performed in all cells for subsequent background subtraction. Each sample underwent three successive heating scans in the temperature range of 10–35 °C at a heating rate of 1.0 °C.min^−1. Data analyses were performed using Microcal Origin® DSC software version 5.0 (GE HealthCare-Microcal®, Amherst, MA, USA), which was employed to subtract the blank and determine the transition temperature (Tm) and transition enthalpy (DtransH) from the gel phase to the liquid crystalline phase.

trypsin = test: Proteolytic degradation by trypsin (HPLC); assay type: in vitro ADME; conditions: trypsin 1:50 (w/w), 100 µM peptide, 20 mM Tris-HCl pH 8.0, 37 °C, HPLC-UV of filtered supernatant; time points 1 min to 4 h
Method: Lunatin–AAAE and EAAA–lunatin and their nanoparticle-functionalized counterparts (NP-Lun-EN and NP-Lun-EC) were suspended in 20 mM Tris-HCl buffer (pH 8.0) at a final peptide concentration of 100 µM and exposed to enzymatic digestion with trypsin at 37 °C, using an enzyme-to-substrate ratio of 1:50 (w/w) in a final volume of 1000 µL. Incubation was performed using an AccuBlock™ Digital Dry Bath (Ciencor),. Aliquots of 200 µL were withdrawn at different time points (1 min, 5 min, 10 min, 30 min, 1 h, 2 h, 3 h, and 4 h), and enzymatic activity was quenched by adding 40 µL of 1 M HCl. Samples were centrifugated and supernatant filtered in whatman® alumina anodisc filter discs 0.02 μm pore size, previously injected in a high-performance liquid chromatography system (Varian® ProStar 315 system equipped with a UV detector), using an Agilent AdvanceBio Peptide Mapping column (4.6 × 150 mm), and 50 µL injection loop.

NP-NtermEAAA-Lun-1 [NP-Lun-EN]
Tm of LUVs ([1]; 10 µM peptide): 22.9 °C | Tm of LUVs ([1]; 25 µM peptide): 22.9 °C | Tm of LUVs ([1]; 50 µM peptide): 22.9 °C | Tm of LUVs ([1]; 100 µM peptide): 21.9 °C | time after which progressive degradation (cleavage fragment peaks) is observed with trypsin (trypsin): 2 h
